Experimental findings from the Immune Epitope Database (IEDB) are described below.

What all share (test): IEDB peptide-MHC binding, purified MHC/competitive/radioactivity; ≥ and ≤ were set here for values at or beyond the usual limits of such assays
Assay [1] concerns the target HLA-A*68:02.
For assay [2], the target named is HLA-A*02:06.
For assay [3], the target named is HLA-A*02:03.
Assay [4] deals with HLA-A*02:02.
Assay [5] deals with HLA-A*02:01.
The mark [6] stands for this setting: source organism: Vaccinia virus WR.
Setting [7] is: source organism: Hepacivirus hominis.
Setting [8] is: source organism: Mammarenavirus brazilense.

One may read the IC50 as the concentration needed to halve the response being measured.

Turning to GLSSGFYFEI, the concentration for half-maximal inhibition (IC50) in assay [1] (setting [6]) was determined as 1720 nM; in assay [2] (setting [6]) it was 1740 nM; in assay [3] (setting [6]), 782 nM; in assay [4] (setting [6]), 48 nM; in assay [5] (setting [6]) it was 176 nM.
As to GLYIPGTSV, the 50% inhibitory concentration (IC50) was 904 nM in assay [1] (setting [6]); 1740 nM in assay [2] (setting [6]); 17 nM in assay [3] (setting [6]); 111 nM in assay [4] (setting [6]); 75 nM in assay [5] (setting [6]).
In the case of GMSIVCIVAA, the IC50 in assay [1] (setting [6]) amounted to 1860 nM; in assay [2] (setting [6]), 1220 nM; in assay [3] (setting [6]), 231 nM; in assay [4] (setting [6]) it was 161 nM; in assay [5] (setting [6]) it was 178 nM.
As to GTIILNKIV, the IC50 in assay [1] (setting [6]) is 926 nM; in assay [2] (setting [6]) it was 1430 nM; in assay [3] (setting [6]), 3400 nM; in assay [4] (setting [6]) it was 1190 nM; in assay [5] (setting [6]), 3890 nM.
For the sequence GTSAAAYFV, the IC50 in assay [1] (source organism: SARS-CoV1) amounted to 14 nM; in assay [2] (source organism: SARS-CoV1), 91 nM; in assay [3] (source organism: SARS-CoV1) it was 202 nM; in assay [4] (source organism: SARS-CoV1) it was 35 nM; in assay [5] (source organism: SARS-CoV1), 176 nM.
Take GTSVIRSNI: the 50% inhibitory concentration (IC50) is 96 nM in assay [1] (setting [6]); 1610 nM in assay [2] (setting [6]); 45 nM in assay [3] (setting [6]); 386 nM in assay [4] (setting [6]); 666 nM in assay [5] (setting [6]).
Take GVCYYLLMHL: the IC50 in assay [1] (setting [6]) is 80 nM; in assay [2] (setting [6]) it was 128 nM; in assay [3] (setting [6]), 64 nM; in assay [4] (setting [6]) it was 96 nM; in assay [5] (setting [6]), 124 nM.
The like results for GVMYAFTTPL were, in that order, 2540 nM, 45 nM, 44 nM, 34 nM and 83 nM.
With HAFLCLFLL, the IC50 was found to be 10 nM in assay [1] (source organism: SARS-CoV1); 1.2 nM in assay [2] (source organism: SARS-CoV1); 46 nM in assay [3] (source organism: SARS-CoV1); 21 nM in assay [4] (source organism: SARS-CoV1); 2.1 nM in assay [5] (source organism: SARS-CoV1).
Regarding HIKTIAVSV, the IC50 in assay [1] (setting [6]) stood at 381 nM; in assay [2] (setting [6]), 1550 nM; in assay [3] (setting [6]), 9.6 nM; in assay [4] (setting [6]), 3080 nM; in assay [5] (setting [6]), 1050 nM.
Regarding HILHAYCGI, the IC50 worked out at 143 nM in assay [1] (setting [6]); 359 nM in assay [2] (setting [6]); 66 nM in assay [3] (setting [6]); 123 nM in assay [4] (setting [6]); 1480 nM in assay [5] (setting [6]).
Consider HLFTSMFSL, for which the IC50 worked out at 181 nM in assay [1] (setting [7]); 627 nM in assay [2] (setting [7]); 105 nM in assay [3] (setting [7]); 5.2 nM in assay [4] (setting [7]); 49 nM in assay [5] (setting [7]).
Regarding HLMSDNPKA, the IC50 turned out to be 1100 nM in assay [1] (setting [6]); 523 nM in assay [2] (setting [6]); 279 nM in assay [3] (setting [6]); 57 nM in assay [4] (setting [6]); 45 nM in assay [5] (setting [6]).
For HSLPRCWLV, the 50% inhibitory concentration (IC50) in assay [1] (setting [8]) was 660 nM; in assay [2] (setting [8]) it was 323 nM; in assay [3] (setting [8]) it was 147 nM; in assay [4] (setting [8]), 655 nM; in assay [5] (setting [8]), 2130 nM.
In the case of HVLLPFYETL, the IC50 in assay [1] (setting [6]) came to 2270 nM; in assay [2] (setting [6]), 115 nM; in assay [3] (setting [6]), 213 nM; in assay [4] (setting [6]) it was 29 nM; in assay [5] (setting [6]), 17 nM.
As for IAACAMLLV, the IC50 in assay [1] (source organism: SARS-CoV1) worked out at 389 nM; in assay [2] (source organism: SARS-CoV1) it was 131 nM; in assay [3] (source organism: SARS-CoV1), 387 nM; in assay [4] (source organism: SARS-CoV1), 320 nM; in assay [5] (source organism: SARS-CoV1), 567 nM.
Take IAGGVCYYL: the IC50 in assay [1] (setting [6]) came out at 394 nM; in assay [2] (setting [6]) it was 1410 nM; in assay [3] (setting [6]), 1680 nM; in assay [4] (setting [6]), 53 nM; in assay [5] (setting [6]), 1930 nM.
For IALALEQYGI the same measures were 2900 nM, 1130 nM, 4920 nM, 980 nM and 3020 nM.
IASILSLETV: the 50% inhibitory concentration (IC50) in assay [1] (setting [6]) was found to be 200 nM; in assay [2] (setting [6]) it was 47 nM; in assay [3] (setting [6]), 93 nM; in assay [4] (setting [6]), 234 nM; in assay [5] (setting [6]), 424 nM.
With IASSMKGENV, the IC50 worked out at 867 nM in assay [1] (setting [6]); 311 nM in assay [2] (setting [6]); 3240 nM in assay [3] (setting [6]); 751 nM in assay [4] (setting [6]); 727 nM in assay [5] (setting [6]).
For IAVITETIPI the same measures were 154 nM, 1 nM, 32 nM, 515 nM and 53 nM.
The like results for IAVSVYGAI were, in that order, 7.8 nM, 1100 nM, 124 nM, 1480 nM and 884 nM.
For the sequence IIAVFDSKL, the IC50 was determined as 2320 nM in assay [1] (setting [6]); 99 nM in assay [2] (setting [6]); 107 nM in assay [3] (setting [6]); 44 nM in assay [4] (setting [6]); 1760 nM in assay [5] (setting [6]).
The like results for IICEDAMYYA were, in that order, 746 nM, 8.8 nM, 108 nM, 24 nM and 23 nM.
